Test results published in patent publication US20200062863A1 (CSL BEHRING, published 2020).

Tests used:
Q450R = target: T1, Q450R; assay: Western blot of culture supernatant (non-reducing SDS-PAGE) probed with 3F7 mAb, anti-human IgG-FITC
T1 construct: also called Mu-FXII Q450R mutant with C-terminal 8xHis-tag; mutant g)
T1 single chain: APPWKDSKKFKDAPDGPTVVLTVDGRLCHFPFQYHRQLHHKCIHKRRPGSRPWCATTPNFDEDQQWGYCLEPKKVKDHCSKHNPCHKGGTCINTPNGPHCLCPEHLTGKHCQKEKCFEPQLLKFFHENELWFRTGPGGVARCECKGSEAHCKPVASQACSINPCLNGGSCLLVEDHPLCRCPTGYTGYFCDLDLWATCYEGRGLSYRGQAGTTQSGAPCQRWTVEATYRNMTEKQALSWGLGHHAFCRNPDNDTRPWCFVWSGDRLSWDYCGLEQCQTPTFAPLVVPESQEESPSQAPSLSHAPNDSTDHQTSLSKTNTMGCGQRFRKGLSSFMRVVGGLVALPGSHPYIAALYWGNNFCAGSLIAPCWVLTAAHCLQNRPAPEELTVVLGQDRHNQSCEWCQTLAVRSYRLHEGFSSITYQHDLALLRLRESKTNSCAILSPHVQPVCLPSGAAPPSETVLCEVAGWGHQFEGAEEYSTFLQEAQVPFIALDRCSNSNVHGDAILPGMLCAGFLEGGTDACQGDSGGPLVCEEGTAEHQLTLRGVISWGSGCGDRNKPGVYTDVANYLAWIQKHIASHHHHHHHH

[1] = target: T2, Mu-FXII I438A mutant with C-terminal 8xHis-tag (mouse, UniProt Q80YC5 20-597); assay: Western blot, non-reducing, 3F7 mAb detected with anti-human IgG-FITC
T2 construct: Culture supernatant; also called mutant f) I438A
T2 sequence: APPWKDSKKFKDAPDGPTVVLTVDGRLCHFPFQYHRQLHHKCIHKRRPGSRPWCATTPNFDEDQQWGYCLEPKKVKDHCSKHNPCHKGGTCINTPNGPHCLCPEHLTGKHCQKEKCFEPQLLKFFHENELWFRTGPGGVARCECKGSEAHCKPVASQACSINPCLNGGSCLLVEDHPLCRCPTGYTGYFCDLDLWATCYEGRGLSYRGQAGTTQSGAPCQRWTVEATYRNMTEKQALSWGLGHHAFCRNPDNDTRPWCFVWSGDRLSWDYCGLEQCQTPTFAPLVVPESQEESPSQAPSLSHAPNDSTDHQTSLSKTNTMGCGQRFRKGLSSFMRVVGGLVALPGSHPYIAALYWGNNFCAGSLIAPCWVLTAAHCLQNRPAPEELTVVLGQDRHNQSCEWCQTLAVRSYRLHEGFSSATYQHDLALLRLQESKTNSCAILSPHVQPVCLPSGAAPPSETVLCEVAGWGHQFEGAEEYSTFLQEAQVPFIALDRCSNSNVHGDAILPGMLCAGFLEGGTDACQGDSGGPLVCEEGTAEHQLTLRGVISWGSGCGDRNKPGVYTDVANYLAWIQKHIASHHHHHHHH
Method: (§1) Proteins were then transferred electrophoretically onto nitrocellulose filters and blocked for 1 hour in 5% Milk powder in Tris-buffered saline with 0.05% Tween-20 (TTBS). Filters were then incubated for 1 hour with either 3F7 mAb or an anti-His mAb 3H3 (both at […] in TTBS with 5% Milk powder), washed thoroughly with TTBS, then incubated for a further hour with anti-human IgG-FITC or anti-mouse IgG-FITC, respectively (Millipore, USA; both at 0.25 mg/ml in TTBS with 5% Milk powder). Following further washing of membranes in TTBS, Ab-FITC bound proteins were visualized using a Typhoon variable mode analyzer (GE Healthcare, USA).

[2] = target: T3, Mu-FXII N398K mutant with C-terminal 8xHis-tag (mouse, UniProt Q80YC5 20-597); assay: as above
T3 construct: Mouse to rat residue change; culture supernatant; also called mutant c) N398K
T3 sequence: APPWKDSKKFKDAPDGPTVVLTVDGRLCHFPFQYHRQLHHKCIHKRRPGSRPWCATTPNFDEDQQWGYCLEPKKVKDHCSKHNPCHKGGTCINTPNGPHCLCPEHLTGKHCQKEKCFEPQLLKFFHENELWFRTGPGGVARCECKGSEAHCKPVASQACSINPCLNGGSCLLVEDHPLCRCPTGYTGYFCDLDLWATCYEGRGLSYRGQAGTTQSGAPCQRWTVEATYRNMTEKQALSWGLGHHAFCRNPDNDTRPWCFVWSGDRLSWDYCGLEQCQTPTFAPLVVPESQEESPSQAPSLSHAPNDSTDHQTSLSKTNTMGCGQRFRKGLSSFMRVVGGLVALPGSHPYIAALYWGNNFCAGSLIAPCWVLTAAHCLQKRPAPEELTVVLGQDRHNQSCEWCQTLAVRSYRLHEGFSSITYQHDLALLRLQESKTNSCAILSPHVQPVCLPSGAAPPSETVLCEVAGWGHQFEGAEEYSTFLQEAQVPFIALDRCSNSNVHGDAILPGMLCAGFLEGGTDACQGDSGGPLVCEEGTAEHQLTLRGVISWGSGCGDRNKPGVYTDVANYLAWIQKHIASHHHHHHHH
Method: as §1

B1: monoclonal antibody 3F7 (fully human IgG4/lambda) (antibody, V domains shown)
VH: EVQLLESGGGLVQPGGSLRLSCAASGFTFSKYIMQWVRQAPGKGLEWVSGIRPSGGTTVYADSVKGRFTISRDNSKNTLYLQMNSLRAEDTAVYYCARALPRSGYLISPHYYYYALDVWGQGTTVTVSS
VL: QSELTQPPSASGTPGQRVTISCSGSSSNIGRNYVYWYQQVPGTAPKLLIYSNNQRPSGVPDRFSGSKSGTSASLVISGLRSEDEADYYCAAWDASLRGVFGGGTKLTVLG
notes: also called 3F7 mAb; MAb 3F7
Q450R
  binding result: binds
[1]
  binding result: no binding
[2]
  binding result: no binding
